Test results as given in PMC13626733, “Molecular basis of high-torque transmission of the Vibrio polar flagellar motor” (Protein & Cell, 2026).

How the values were obtained:
Assay in all cases: cryo-EM structure; polar flagellar motor-hook complex purified as a whole from V. alginolyticus KK148 ΔflgL; local refinements of the LPHT ring, hook, rod, export apparatus and MS ring; LPHT ring particles also obtained by disassembling the complex at reduced salt
[1] = biological target: FlgH (Vibrio alginolyticus (endogenous in strain KK148 ΔflgL))
[2] = biological target: FlgI (Vibrio alginolyticus (endogenous in strain KK148 ΔflgL))
[3] = biological target: FlgT (Vibrio alginolyticus (endogenous in strain KK148 ΔflgL))
[4] = biological target: the molecule itself

FlgH (natural protein)
stoichiometry N [1]: 26

FlgI (natural protein)
stoichiometry N [2]: 26

FlgT (natural protein)
stoichiometry N [3]: 26

B1: FliF (natural protein, UniProt Q75N27 1-580, looked up)
chain: MADKSTDLTVTEGGSDGALVASSDVDVESQNPDLEERSASKFDMAVGDLDLLRQVVLVLSISICVALIVMLFFWVKEPEMRPLGAYETEELIPVLDYLDQQKINYKLDGNTISVESSEYNSIKLGMVRSGVNQATEAGDDILLQDMGFGVSQRLEQERLKLSRERQLAQAIEEMKQVRKARVLLALPKHSVFVRHNQEASASVFLTLSTGTNLKQQEVDSIVDMVASAVPGMKTSRITVTDQHGRLLSSGSQDPASAARRKEQELERSQEQALREKIDSVLLPILGYGNYTAQVDIQMDFSAVEQTRKRFDPNTPATRSEYALEDYNNGNMVAGIPGALSNQPPADASIPQDVAQMKDGSVMGQGSVRKESTRNFELDTTISHERKQTGTVARQTVSVAIKDRRQVNPDTGEVTYTPMSESEINAIRQVLIGTVGFDQGRGDLLNVLSVKFAEPEAEQLEEPPIWEHPNFSDWVRWFASALVIIVVVLVLVRPAMKKLLNPTSDDEDEMYGPDGLPIGADGETSLIGSDIESSELFEFGSSIDLPNLHKDEDVLKAVRALVANEPELAAQVVKNWMNDNG
notes: FliF, MS ring subunit of the polar flagellar motor, Vibrio alginolyticus; domains RBM2, RBM3, β-collar; extended peptide loops LA, LB, LC; 34 subunits form the MS ring; 23 RBM2 domains seen in the RBM2 subring; also called MS ring protein; FliF peptide loops LA, LB, LC; source: endogenous, purified within the polar flagellar motor-hook complex from V. alginolyticus KK148 ΔflgL
stoichiometry N [4]: 34
